Experiment [1] deals with T1, HA-tagged UL128Δ1-27 hCMV protein expressed in HEK293T cells (human cytomegalovirus (hCMV), UniProt P16837 28-171).
T1 construct: mature; not shown: hemagglutinin (HA) tag
T1 sequence: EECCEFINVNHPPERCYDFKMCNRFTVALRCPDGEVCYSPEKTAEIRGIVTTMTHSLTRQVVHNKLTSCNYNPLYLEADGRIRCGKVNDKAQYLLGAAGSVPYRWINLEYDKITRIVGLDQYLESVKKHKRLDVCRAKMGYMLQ
The experiment can be described thus: FACS staining of fixed, permeabilized transfected HEK293T cells.

Experiment [2] concerns the target T2, HA-tagged UL130Δ1-25 hCMV protein expressed alone in HEK293T cells (human cytomegalovirus (hCMV), UniProt P16772 26-214).
T2 construct: mature; not shown: hemagglutinin (HA) tag
The description is as above.

In experiment [3] the target is UL130/UL131A of a clinical hCMV isolate (virus used in the neutralisation assay) (human cytomegalovirus (hCMV), UniProt P16772 26-214). The experiment can be described thus: cell-based or functional assay.

Some results are limits rather than exact numbers.

B1: human monoclonal antibody 5A2 (antibody, V domains shown)
VH: QVQLVQSGAEVRKPGSSVKVSCKASGGTFSSYVIHWVRQAPGQGLEWMGGIIPIFNTANYAQKVQGRVTITADESTSTAYMELSSLRSEDTAIYYCARDFLSGPMEMPGGYYGLDVWGQGTTVTVSS
VL: not shown
notes: Human IgG from an immortalised B cell clone
In the case of B1, the binding result in experiment [1] is given as “no binding”. Besides, the binding result in experiment [2] is listed as “no binding”. In experiment [3], the “50% neutralisation (µg/ml), Endothelial cells” value was 0.002 µg/mL and the “50% neutralisation (µg/ml), Fibroblasts” value is > 2 µg/mL.

B2: human monoclonal antibody 1F11 (antibody, V domains shown)
VH: QVQLVESGGGVVQPGRSVRLSCVASGFTFSSYAMHWVRQAPGKGLEWVSLISFDGDNKYYADSVRGRFTISRDSSQKTLFLQMNSLRVEDTAIYYCAREELVGLMPPYYNYGLDVWGQGTTVTVSS
VL: QSVLTQPPSVSAAPGQKVTISCSGSSSNIGNNFVSWYQQLPGTAPKLLIYDNDRRPSGIPDRFSGSKSDTSATLVITGLQTGDEADYYCETWDGSLNPAVVFGGGTRLTVL
notes: Human IgG from an EBV-immortalised B cell clone
In the case of B2, the binding result in experiment [1] was “no binding”. Moreover, in experiment [2], the binding result was “no binding”. Besides, in experiment [3], the “50% neutralisation (µg/ml), Endothelial cells” value is 0.001 µg/mL and the “50% neutralisation (µg/ml), Fibroblasts” value was > 2 µg/mL.

B3: human monoclonal antibody 2F4 (antibody, V domains shown)
VH: QVQLVESGGGVVQPGRSLRLSCAASGFSFNTYGMHWVRQAPGKGLEWVAVIWDDGSKMYHADSVKGRFTISRDNSKNTLYLQMNSLRAEDTAVYYCARDEGAIMLHAMTDYGLDVWGQGTTVTV
VL: SYELTQPPSVSVSPGQTATITCSGDNLGDEFACWYQQKPGQSPVLVIYQDSKRPSGIPERFSGSSSGNTATLTIRGTQAMDEADYYCQAWDSSTAHYVFGTGTKVTVL
notes: as for B1
As for B3, the binding result in experiment [1] and in experiment [2] was “no binding” in each case. The “50% neutralisation (µg/ml), Endothelial cells” value in experiment [3] was found to be 0.003 µg/mL. Besides, the “50% neutralisation (µg/ml), Fibroblasts” value in experiment [3] was > 2 µg/mL.

For the origin of these results see patent US20080213265A1 (INSTITUTE FOR RESEARCH IN BIOMEDICINE, published 2008).
